# Read-outs that look alike come from different tables or passages of the source. Ends that are not written are not given here. * marks the point of attachment. Butanoyl(4-N3) = [N-]=[N+]=NCCCC(=O)*; Pent4ynoyl = C#CCCC(=O)*
# B1: phage wrapped with P100NSP-2 (peptide)
# peptide 1: SECVEVFQNSCDW
# peptide 2: KKKKKKKKKKKKKKC
# chain: AEGDDPAKAAFNSLQASATEYIGYAWAMVVVIVGATIGIKLFKKFTSKAS
# modifications: Cys thiol joined to the maleimide of the PEG100 ligand; C-terminal carboxamide; N-terminal azide clicked to pentynoic acid, then HBTU-coupled non-specifically (carboxylates incl. side chains, Asp12 may be partly modified) to Mal-PEG100-NH2; C-terminal carboxamide
# notes: mature; Whole M13 virion; K14-Cys held electrostatically on P8
# B2: phage-2 (M13 phage displaying PSMA ligand 2 as a fusion to P8) (peptide)
# chain: SECVEVFQNSCDW
# modifications: not fully specified; cysteine pairing not given here; also: displayed on M13 phage as fusion to P8 coat protein
# notes: Whole M13 virion in the assay (free in ELISA, embedded in a PEDOT film for impedance sensing); also called peptide 2; peptide-2; not shown: M13 major coat protein P8, 50 amino acid residues; NCBI GI:402239556 named in an embodiment
# B3: phage wrapped with P100SP-2 (peptide)
# peptide 1: SECVEVFQNSCDW
# peptide 2: KKKKKKKKKKKKKKC
# chain: B1 chain
# modifications: Cys thiol joined to the maleimide of the PEG100 ligand; C-terminal carboxamide; N-terminal azide clicked to Mal-PEG100-alkyne (specific attachment); C-terminal carboxamide
# notes: as for B1
# B4: phage wrapped with P100NSP-P4-2 (peptide)
# peptide 1: SECVEVFQNSCDW
# peptide 2: KKKKKKKKKKKKKKC
# chain: B1 chain
# modifications: Cys thiol joined to the maleimide of the PEG100 ligand; C-terminal carboxamide; N-terminal azido-PEG4-carboxylic acid, clicked to pentynoic acid, then HBTU-coupled non-specifically to Mal-PEG100-NH2; C-terminal carboxamide
# notes: as for B1
# B5: phage wrapped with P100SP-P4-2 (peptide)
# peptide 1: SECVEVFQNSCDW
# peptide 2: KKKKKKKKKKKKKKC
# chain: B1 chain
# modifications: Cys thiol joined to the maleimide of the PEG100 ligand; C-terminal carboxamide; N-terminal azido-PEG4-carboxylic acid, clicked to Mal-PEG100-alkyne (specific attachment); C-terminal carboxamide
# notes: as for B1
# B6: phage-2 wrapped with a 1:1 (w/w) mixture of KCS-2 and KCS-1 (peptide)
# chain: SECVEVFQNSCDW
# peptide 1: Pent4ynoyl-KKKKKKKKKKKKKK-NH2
# peptide 2: {Butanoyl(4-N3)}-KKKCALCEFLG-NH2
# peptide 3: {Butanoyl(4-N3)}-KKKSECVEVFQNSCDW-NH2
# modifications: cysteine pairing not given here; also: K14 chains clicked to ligand chains, triazole to a chain's N-terminus
# notes: Whole M13 virion with both wrappers held electrostatically on the coat; also called 1:1 mixture of KCS-1 and KCS-2 wrapped on the surface of phage-2; not shown: M13 major coat protein P8, 50 amino acid residues; NCBI GI:402239556 named in an embodiment
# B7: phage-2 wrapped with KCS-1 (peptide)
# chain: SECVEVFQNSCDW
# peptide 1: Pent4ynoyl-KKKKKKKKKKKKKK-NH2
# peptide 2: {Butanoyl(4-N3)}-KKKCALCEFLG-NH2
# modifications: not fully specified; cysteine pairing not given here; also: KCS-1 wrapper held on P8 coat electrostatically, triazole to a chain's N-terminus
# notes: Whole M13 virion (free in ELISA, embedded in a PEDOT film for impedance sensing); the KCS-1 wrapper is held on the P8 coat electrostatically; also called Phage-2 film wrapped with KCS-1; not shown: M13 major coat protein P8, 50 amino acid residues; NCBI GI:402239556 named in an embodiment
# B8: phage-2 wrapped with KCS-2 (peptide)
# chain: SECVEVFQNSCDW
# peptide 1: Pent4ynoyl-KKKKKKKKKKKKKK-NH2
# peptide 2: {Butanoyl(4-N3)}-KKKSECVEVFQNSCDW-NH2
# modifications: not fully specified; cysteine pairing not given here; also: KCS-2 wrapper held on P8 coat electrostatically, triazole to a chain's N-terminus
# notes: Whole M13 virion; the KCS-2 wrapper (K14 clicked to K3-ligand 2) is held on the P8 coat electrostatically, not covalently; also called Phage with chemically and genetically encoded ligands; not shown: M13 major coat protein P8, 50 amino acid residues; NCBI GI:402239556 named in an embodiment
# B9: KO7 helper phage (other, M13 bacteriophage, UniProt P69541 24-73, looked up)
# chain: B1 chain
# notes: mature; Helper phage lacking a genetically encoded PSMA ligand; bought from GE Healthcare
# Assays:
# [1] = target: T1, PSMA on the surface of LNCaP cells (human, UniProt Q04609 1-750); assay: cell-based phage ELISA on fixed LNCaP cells, anti-M13-HRP detection, HRP activity as fold change
# T1 construct: whole, on cells; Cells were glutaraldehyde-fixed on the plate in the cell-based ELISA and in suspension in the sandwich ELISA; also called cell surface PSMA; PSMA on LNCaP cells
# [2] = target: T2, prostate-specific membrane antigen (PSMA), dimeric form (UniProt Q04609 44-750, limits assumed); assay: electrochemical impedance spectroscopy, virus-PEDOT film, Hill fit of ΔR/Ro against PSMA concentration; phage-2 alone, not wrapped with KCS-1
# T2 construct: Purified protein, construct not described; also called dimeric PSMA
# Description: (§1) Biosensing with Virus-PEDOT Films. To explore whether these wrapped virus particles could be exploited to create virus-electrode biosensors with a higher sensitivity for PSMA, films of PEDOT were prepared on gold electrodes by electropolymerization in the presence of phage-2 (FIG. 2B). The PEDOT films formed in solution during electropolymerization associate with the negatively charged perchlorate ions from the electrolyte solution as it is deposited onto the gold electrode.[30] Polymerization of EDOT in the presence of negatively charged phage particles leads to incorporation of virus particles into the polymeric film as counterion dopants due to electrostatic interactions.[21] […] SEM imaging confirms incorporation of phage into the bioaffinity matrix; both filament-like and less extended features having dimensions consistent with phage integrated as rope-like bundles into the polymer at various angles to the film (FIGS. 4B-4C) were observed. The $KCS$-1 wrapper was then applied in vitro simply by exposing the resultant phage-2 film for a short time to an aqueous solution of the wrapper. For the biosensing measurements, only the highest affinity ligand combination of phage-2 wrapped with $KCS$-1 was used, and it was studied in comparison to phage-2 films.
# (§2) where $Y=\Delta R/R_o$, [L] is the ligand concentration, and n is the Hill coefficient.[31] […]
# [3] = target: T2, prostate-specific membrane antigen …; assay: phage ELISA, PSMA dimer coated on the plate, [PSMA] = 11.1 nM, phage titrated, anti-M13-HRP detection
# Description: (§3) In a phage-based ELISA, specific wells of a 96-well microtiter plate (Nunc Maxisorp) were coated with 100 µL/well of a solution of PSMA (5.56 or 11.1 nM) monomer or dimer protein diluted in PBS. The plate was incubated for 1 h on a shaker at room temperature. The coating solution was removed, and the wells were blocked with 320 µL/well of 0.2% w/v solution of BSA in PBS for 30 min, and washed three times with 300 µL/well of wash buffer PT (0.05% TWEEN-20 in PBS). […] The wells on the ELISA plate were then incubated with the phage samples (100 µL/well) for 1 h. The wells were washed five times with PT and then incubated with horseradish-peroxidase-conjugated anti-M13 antibody (100 µL/well, 1:5000 dilution in PBT) for 30 min. The wells were washed three times with PT, and two times with PBS. The plate was then developed by incubating with HRP substrate solution (100 µL/well; 1 mg/mL o-phenylenediamine dihydrochloride and 0.02% w/v H_2O_2) in citric acid buffer (50 mM citric acid, 50 mM Na_2HPO_4, pH 5.0). Following an appropriate incubation time, HRP activity was measured spectrophotometrically at 450 nm using a microtiter plate reader (Bio-Tek).
# bovine serum albumin [4] = target: T3, bovine serum albumin (bovine, UniProt P02769 25-607); assay: phage ELISA on BSA, anti-M13-HRP detection
# T3 construct: also called BSA
# [5] = target: T1, PSMA on the surface of LNCaP cells; assay: cell-based phage ELISA on fixed LNCaP cells, anti-M13-HRP detection, HRP activity as fold change; remark: listed apart in the source
# bovine serum albumin [6] = target: T3, bovine serum albumin; assay: phage-wrapping ELISA on BSA, anti-M13-HRP detection
# transferrin receptor = target: T4, transferrin receptor (UniProt P02786 89-760, limits assumed); assay: electrochemical impedance of a virus-PEDOT film in PBF-Tween after exposure to TfR, ΔR/Ro against frequency; concentration not given
# T4 construct: Alternative target used as specificity control in impedance sensing; also called TfR
# [7] = target: T2, prostate-specific membrane antigen …; assay: phage-based wrapping ELISA, PSMA dimer coated (FIG. 3C)
# Description: as §3, with “The plate was then developed by incubating with HRP substrate solution (100 µL/well; 1 mg/mL o-phenylenediamine dihydrochloride and 0.02% w/v H_2O_2) in citric acid buffer (50 mM citric acid, 50 mM Na_2HPO_4, pH 5.0).” left out
# (§4) Phage-based wrapping ELISA: Phage (5 nM in 225 µL) and 2 µL of the purified cycloaddition reaction product, $KCS$-1/2 (308.7 µM) in water: acetonitrile (60:40), were mixed and serially diluted in PBT. […] Levels of phage binding were quantified as described above.
# [8] = target: T2, prostate-specific membrane antigen …; assay: electrochemical impedance spectroscopy, virus-PEDOT film, PBF-TWEEN buffer (FIG. 4F)
# [9] = target: T2, prostate-specific membrane antigen …; assay: electrochemical impedance spectroscopy, virus-PEDOT film, Hill fit of ΔR/Ro against PSMA concentration; phage-2 wrapped with KCS-1
# Description: as §1, §2
# [10] = target: T5, prostate-specific membrane antigen (PSMA), monomeric form (UniProt Q04609 44-750, limits assumed); assay: phage ELISA, PSMA monomer coated on the plate, [PSMA] = 11.1 nM, anti-M13-HRP detection
# T5 construct: Purified protein coated on the ELISA plate; construct not described
# Description: as §3
# [11] = target: T2, prostate-specific membrane antigen …; assay: electrochemical impedance of a virus-PEDOT film in PBF-Tween after exposure to PSMA, ΔR/Ro against frequency; concentration not given
# bovine serum albumin [12] = target: T3, bovine serum albumin; assay: phage-wrapping ELISA on BSA, anti-M13-HRP detection; remark: listed apart in the source
# [13] = target: T2, prostate-specific membrane antigen …; assay: phage-based wrapping ELISA, PSMA dimer coated (FIG. 3A)
# Description: as §3, with “The plate was then developed by incubating with HRP substrate solution (100 µL/well; 1 mg/mL o-phenylenediamine dihydrochloride and 0.02% w/v H_2O_2) in citric acid buffer (50 mM citric acid, 50 mM Na_2HPO_4, pH 5.0).” left out
# as §4
# [14] = target: T2, prostate-specific membrane antigen …; assay: phage ELISA, PSMA coated on the plate, [PSMA] = 13 nM, anti-M13-HRP detection
# T1 sequence (Q04609 whole entry): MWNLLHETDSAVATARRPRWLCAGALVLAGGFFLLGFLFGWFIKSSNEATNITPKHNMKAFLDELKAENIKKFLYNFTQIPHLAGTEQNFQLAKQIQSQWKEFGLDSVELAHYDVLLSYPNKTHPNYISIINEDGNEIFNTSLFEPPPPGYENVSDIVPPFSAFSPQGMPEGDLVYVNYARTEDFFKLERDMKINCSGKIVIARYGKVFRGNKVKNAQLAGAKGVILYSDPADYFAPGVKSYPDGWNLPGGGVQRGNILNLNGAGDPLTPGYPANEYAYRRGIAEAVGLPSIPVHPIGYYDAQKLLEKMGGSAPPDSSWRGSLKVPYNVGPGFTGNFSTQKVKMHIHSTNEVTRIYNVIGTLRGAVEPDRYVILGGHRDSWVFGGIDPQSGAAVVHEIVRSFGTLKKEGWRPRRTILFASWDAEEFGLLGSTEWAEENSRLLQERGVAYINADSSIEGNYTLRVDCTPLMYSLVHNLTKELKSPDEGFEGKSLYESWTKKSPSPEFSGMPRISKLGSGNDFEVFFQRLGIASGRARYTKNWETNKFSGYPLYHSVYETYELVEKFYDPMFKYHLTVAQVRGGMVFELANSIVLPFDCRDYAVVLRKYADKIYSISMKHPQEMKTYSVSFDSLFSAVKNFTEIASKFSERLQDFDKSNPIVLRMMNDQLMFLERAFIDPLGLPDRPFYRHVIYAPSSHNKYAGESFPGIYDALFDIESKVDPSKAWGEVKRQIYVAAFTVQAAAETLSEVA
# T2 sequence (Q04609 44-750 limits assumed): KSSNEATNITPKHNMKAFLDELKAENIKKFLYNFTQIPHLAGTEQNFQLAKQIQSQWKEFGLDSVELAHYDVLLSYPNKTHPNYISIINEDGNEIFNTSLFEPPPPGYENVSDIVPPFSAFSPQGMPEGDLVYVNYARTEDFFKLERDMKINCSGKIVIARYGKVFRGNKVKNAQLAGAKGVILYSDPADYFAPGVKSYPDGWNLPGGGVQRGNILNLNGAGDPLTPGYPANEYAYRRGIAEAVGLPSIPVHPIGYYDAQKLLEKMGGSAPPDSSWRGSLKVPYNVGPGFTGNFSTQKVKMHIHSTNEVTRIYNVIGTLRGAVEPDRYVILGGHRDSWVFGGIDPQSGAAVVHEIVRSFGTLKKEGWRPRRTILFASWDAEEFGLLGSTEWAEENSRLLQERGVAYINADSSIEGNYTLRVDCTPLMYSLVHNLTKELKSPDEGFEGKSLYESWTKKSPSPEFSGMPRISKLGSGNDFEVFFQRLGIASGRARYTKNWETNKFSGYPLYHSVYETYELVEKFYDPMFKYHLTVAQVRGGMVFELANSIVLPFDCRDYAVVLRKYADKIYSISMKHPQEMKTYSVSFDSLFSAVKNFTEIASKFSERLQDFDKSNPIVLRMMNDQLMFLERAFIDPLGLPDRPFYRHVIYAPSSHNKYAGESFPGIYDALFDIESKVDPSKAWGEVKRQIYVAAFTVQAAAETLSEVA
# T3 sequence (P02769 25-607 limits assumed): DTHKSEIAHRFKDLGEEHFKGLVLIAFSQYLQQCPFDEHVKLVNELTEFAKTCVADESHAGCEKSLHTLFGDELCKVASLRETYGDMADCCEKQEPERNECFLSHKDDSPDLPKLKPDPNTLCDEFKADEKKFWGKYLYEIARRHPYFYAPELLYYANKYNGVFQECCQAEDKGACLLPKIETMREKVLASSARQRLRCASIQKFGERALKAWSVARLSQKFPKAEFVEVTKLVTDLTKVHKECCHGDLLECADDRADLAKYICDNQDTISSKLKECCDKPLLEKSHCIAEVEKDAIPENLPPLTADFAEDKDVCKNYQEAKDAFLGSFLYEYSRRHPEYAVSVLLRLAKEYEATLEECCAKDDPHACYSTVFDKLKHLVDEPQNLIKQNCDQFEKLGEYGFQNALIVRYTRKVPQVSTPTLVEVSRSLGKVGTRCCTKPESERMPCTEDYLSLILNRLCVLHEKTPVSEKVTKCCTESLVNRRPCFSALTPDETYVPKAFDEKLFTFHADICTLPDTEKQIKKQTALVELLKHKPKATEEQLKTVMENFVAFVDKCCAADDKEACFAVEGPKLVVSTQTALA
# T5 sequence (Q04609 44-750 limits assumed): as the sequence (Q04609 44-750 limits assumed) above
# T4 sequence (P02786 89-760 limits assumed): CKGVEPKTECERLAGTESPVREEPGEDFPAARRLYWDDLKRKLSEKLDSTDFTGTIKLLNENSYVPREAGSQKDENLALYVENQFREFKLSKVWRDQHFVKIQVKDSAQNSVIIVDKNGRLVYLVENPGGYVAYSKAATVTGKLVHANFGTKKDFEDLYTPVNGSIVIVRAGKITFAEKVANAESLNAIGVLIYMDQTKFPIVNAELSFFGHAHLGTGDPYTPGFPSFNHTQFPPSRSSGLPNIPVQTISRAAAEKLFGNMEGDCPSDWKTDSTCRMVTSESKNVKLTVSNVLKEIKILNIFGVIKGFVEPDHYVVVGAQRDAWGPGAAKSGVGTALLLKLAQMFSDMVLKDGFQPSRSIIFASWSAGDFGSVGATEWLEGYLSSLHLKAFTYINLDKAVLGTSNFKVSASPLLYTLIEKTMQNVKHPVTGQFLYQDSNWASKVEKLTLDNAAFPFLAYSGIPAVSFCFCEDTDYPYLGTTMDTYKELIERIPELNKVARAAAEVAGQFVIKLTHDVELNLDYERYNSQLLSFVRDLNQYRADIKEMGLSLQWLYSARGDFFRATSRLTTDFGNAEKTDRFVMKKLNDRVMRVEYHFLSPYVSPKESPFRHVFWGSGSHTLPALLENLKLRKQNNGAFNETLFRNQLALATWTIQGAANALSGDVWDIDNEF
binder,measurement,setting,value
B1,binding result,[1],binds
B2,Kd,[2],54 nM
same,EC50 (read off the curve),[3],~0.008 nM
same,binding result,bovine serum albumin [4],no binding (tested: 5 nM)
B3,binding result,[5],binds
B4,binding result,[5],binds
B5,binding result,[5],binds
B6,binding result,bovine serum albumin [6],no binding (tested: 5 nM)
B7,binding result,bovine serum albumin [6],no binding (tested: 5 nM)
same,binding result,transferrin receptor,no binding
same,fold higher apparent affinity than phage-2 wrapped with KCS-2,[7],4 fold
same,fold ΔR/Ro relative to films with unwrapped phage-2,[8],3 fold
same,Kd,[9],33 nM
"AEGDDPAKAAFNSLQASATEYIGYAWAMVVVIVGATIGIKLFKKFTSKAS (other, M13 bacteriophage, UniProt P69541 24-73, looked up, not fully specified, mature; also called control phage) [Stop-4 phage (phagemid packaged by helper phage, no ligand displayed)]",binding result,[10],no binding (tested: last point just right of the 10 nM tick)
same,binding result,[11],no binding
B8,binding result,bovine serum albumin [12],no binding (tested: 5 nM)
same,fold higher affinity than phage-2 without the ligand wrapper,[13],~50 fold
B9,binding result,[14],no binding (tested: about 5 nM)

# Reference: patent US11168306 (University of California, dated 2021)
